Assays:
[1] = molecular target: T1, Hu FcRn (BPS Bioscience) (human, UniProt P55899 24-297; P61769 21-119); assay: ELISA, huFcRn coated, pH 6
T1 construct: Bought recombinant protein coated on ELISA plates; also called human FcRn; human neonatal Fc receptor
Experimental: The binding of AFFIMER® to Hu-FcRn was evaluated by enzyme linked immunosorbent assay (ELISA) in 384 well plate format. Hu FcRn (BPS Bioscience) was coated at 5 μg/ml on the plate in 40 mM MES, pH 6. Plates were washed 3 times with 100 μl of washing buffer (PBS, Tween 20 0.05%, pH 6) with a plate washer and saturated with Casein 5% (Sigma) in MES pH6 for 60 minutes at room temperature (25±1° C.). Plates were washed as described previously. AFFIMER® and negative controls (mAb anti hFcRn (clone ADM31), negative controls) were then diluted in duplicate, and loaded on the plate for 90 minutes at room temperature (25±1° C.). Plates were washed 3 times as described previously. Biotinylated polyclonal antibody anti Cystatin (R&D Systems) was then diluted in dilution Buffer (1% casein, 0.05% Tween 20, and 8 mM MES. It is in pH6) and incubated 60 minutes at room temperature (25±1° C.). Plates were washed 3 times as described previously and Streptavidin HRP (N200, thermo-Fisher) was incubated for 30 minutes at room temperature (25±1° C.). Plates were washed and the substrate (TMB, Pierce Thermo-Scientific) was added in the plate for 8±1 minute. The reaction was stopped using an acidic solution and plates were read at 450-630 nm. The EC50 was then calculated using the interpolated non-linear four-parameters standard curve (Table 4).

[2] = molecular target: T1, Hu FcRn (BPS Bioscience); assay: ELISA, huFcRn coated, pH 7.4
Experimental: (§1) The binding of AFFIMER® to hu-FcRn was evaluated by enzyme linked immunosorbent assay (ELISA) in 384 well plate format. Hu FcRn (BPS Bioscience) was coated at 5 μg/ml on the plate in PBS, pH 7.4. Plates were washed 3 times with 100 μl of washing buffer (PBS, Tween 20 0.05%, pH 7.4) with a plate washer and saturated with Casein 5% (Sigma) in MES pH 7.4 for 60 minutes at room temperature (25±1° C.). Plates were washed as described previously. AFFIMER® and controls (mAb anti hFcRn (ADM31), blank) were then diluted in duplicate, and loaded on the plate for 90 minutes at room temperature (25±1° C.). Plates were washed 3 times as described previously. Biotinylated polyclonal antibody anti Cystatin (R&D Systems) was then diluted in dilution Buffer (1% casein, 0.01% Tween 20, and 8 mM MES. It is in pH 7.4) and incubated 60 minutes at room temperature (25±1° C.). Plates were washed 3 times as described previously and Streptavidin HRP (N200, thermo-Fisher) was incubated for 30 minutes at room temperature (25±1° C.). Plates were washed and the substrate (TMB, Pierce Thermo-Scientific) was added in the plate for 8±1 minute. The reaction was stopped using an acidic solution and plates were read at 450-630 nm.

[3] = molecular target: T1, Hu FcRn (BPS Bioscience); assay: ELISA, huFcRn coated, purified Affimer, pH 6
Experimental: (§2) The binding of AFFIMER® to hu-FcRn was evaluated by enzyme linked immunosorbent assay (ELISA) in 384 well plate format. Hu FcRn (BPS Bioscience) was coated at 5 μg/ml on the plate in 40 mM MES, pH 6. Plates were washed 3 times with 100 ul of washing buffer (PBS, Tween 20 0.05%, pH 6) with a plate washer and saturated with Casein 5% (Sigma) in MES pH 6 for 60 minutes at room temperature (25±1° C.). Plates were washed as described previously. AFFIMER® and negative controls (mAb anti hFcRn (clone ADM31), negative controls) were then diluted in duplicate, and loaded on the plate for 90 minutes at room temperature (25±1° C.). Plates were washed 3 times as described previously. Biotinylated polyclonal antibody anti Cystatin (R&D Systems) was then diluted in dilution buffer (1% casein, 0.05% Tween 20, and 8 mM MES, pH 6) and incubated 60 minutes at room temperature (25±1° C.). Plates were washed 3 times as described previously and Streptavidin HRP (N200, Thermo-Fisher) was incubated for 30 minutes at room temperature (25±1° C.). Plates were washed and the substrate (TMB, Pierce Thermo-Scientific) was added in the plate for 8±1 minute. The reaction was stopped using an acidic solution and plates were read at 450-630 nm. The EC₅₀ was then calculated using the interpolated non-linear four-parameters standard curve (FIGS. 5A-5B and Table 5A).

[4] = molecular target: T1, Hu FcRn (BPS Bioscience); assay: ELISA, huFcRn coated, purified Affimer, pH 7.4
Experimental: as §1, with “100 ul” for “100 μl”, “in pH7.4)” for “in pH 7.4)”, “nm. The EC₅₀ was then calculated using the interpolated non-linear four-parameters standard curve (FIGS. 5A-5B, Table 5A).” for “nm.”

[5] = molecular target: T1, Hu FcRn (BPS Bioscience); assay: ELISA, huFcRn coated; ratio of the EC50 at the two pH values
Experimental: as §2
The binding of AFFIMER® to hu-FcRn was evaluated by enzyme linked immunosorbent assay (ELISA) in 384 well plate format. Hu FcRn (BPS Bioscience) was coated at 5 μg/ml on the plate in PBS, pH 7.4. Plates were washed 3 times with 100 ul of washing buffer (PBS, Tween 20 0.05%, pH 7.4) with a plate washer and saturated with Casein 5% (Sigma) in MES pH 7.4 for 60 minutes at room temperature (25±1° C.). Plates were washed as described previously. AFFIMER® and controls (mAb anti hFcRn (ADM31), blank) were then diluted in duplicate, and loaded on the plate for 90 minutes at room temperature (25±1° C.). Plates were washed 3 times as described previously. […]

[6] = molecular target: T1, Hu FcRn (BPS Bioscience); assay: ELISA, huFcRn coated, purified Affimer fusion, pH 6
Experimental: as §2

[7] = molecular target: T1, Hu FcRn (BPS Bioscience); assay: ELISA, huFcRn coated, purified Affimer fusion, pH 7.4
Experimental: as §1, with “100 ul” for “100 μl”, “in pH7.4)” for “in pH 7.4)”, “nm. The EC₅₀ was then calculated using the interpolated non-linear four-parameters standard curve (FIGS. 5A-5B, Table 5A).” for “nm.”

T1 sequence (P55899 24-297 limits assumed, chain 1 of 2): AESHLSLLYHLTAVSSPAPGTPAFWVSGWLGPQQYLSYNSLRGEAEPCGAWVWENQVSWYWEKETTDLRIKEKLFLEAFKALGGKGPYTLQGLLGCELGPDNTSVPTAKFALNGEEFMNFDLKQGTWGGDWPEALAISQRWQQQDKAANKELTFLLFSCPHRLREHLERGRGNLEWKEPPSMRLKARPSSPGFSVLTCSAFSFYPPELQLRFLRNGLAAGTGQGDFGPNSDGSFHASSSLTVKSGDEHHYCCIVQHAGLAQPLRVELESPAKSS
T1 sequence (P61769 21-119 limits assumed, chain 2 of 2): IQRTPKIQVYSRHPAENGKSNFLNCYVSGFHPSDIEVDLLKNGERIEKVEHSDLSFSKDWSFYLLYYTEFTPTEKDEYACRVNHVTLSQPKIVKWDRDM

B1: FcRn-38 (designed binder)
chain: MIPRGLSEAKPATPEIQEIVDKVKPQLEEKTNETYGKLEAVQYKTQVLALSFNNYHWHSTNYYIKVRAGDNKYMHLKVFNGPKLRHDKLTHADRVLTGYQVDKNKDDELTGFHHHHHH
notes: AFFIMER (stefin A variant); also called LGC01-38
- EC50 [1]: 0.14 nM
- EC50 [2]: 0.895 nM
- EC50 [3]: 0.003 nM
- EC50 [4]: 0.5 nM
- pH 6/pH 7.4 (EC50 ratio) [5]: 167

B2: FcRn-35 (designed binder)
chain: MIPRGLSEAKPATPEIQEIVDKVKPQLEEKTNETYGKLEAVQYKTQVLAHRQYPPGPHSTNYYIKVRAGDNKYMHLKVFNGPYHFHHYYKHADRVLTGYQVDKNKDDELTGFHHHHHH
notes: AFFIMER (stefin A variant); also called LGC01-35
- EC50 [1]: 47.9 nM
- EC50 [2]: 225 nM
- EC50 [3]: 0.673 nM
- EC50 [4]: 113 nM
- pH 6/pH 7.4 (EC50 ratio) [5]: 168

B3: AVA04-251 FX6 (designed binder)
chain: MIPRGLSEAKPATPEIQEIVDKVKPQLEEKTNETYGKLEAVQYKTQVLALSFNNYHWHSTNYYIKVRAGDNKYMHLKVFNGPKLRHDKLTHADRVLTGYQVDKNKDDELTGFAEAAAKEAAAKEAAAKEAAAKEAAAKEAAAKMIPRGLSEAKPATPEIQEIVDKVKPQLEEKTNETYGKLEAVQYKTQVLAREGRQDWVLSTNYYIKVRAGDNKYMHLKVFNGPWVPFPHQQLADRVLTGYQVDKNKDDELTGFAEAAAKEAAAKEAAAKEAAAKEAAAKEAAAKMIPRGLSEAKPATPEIQEIVDKVKPQLEEKTNETYGKLEAVQYKTQVLAREGRQDWVLSTNYYIKVRAGDNKYMHLKVFNGPWVPFPHQQLADRVLTGYQVDKNKDDELTGFHHHHHH
- EC50 [6]: 0.03 nM
- EC50 [7]: 4.3 nM
- pH 6/pH 7.4 (EC50 ratio) [5]: 143
